Residue numbers refer to the chain shown, from its start.
B1: Ch02 (antibody, human IgG1, kappa, V domains shown)
VH: EVKLVESGGGLVQPGGSLRLSCATSGFTFTEYHMSWVRQPPGKALEWLGFIRNRANGYTTEYSASVKGRFTISRDNSQNILYLQMNTLRTEDSATYYCARLTMVVAEFDYWGQGTTLTVSS
VL: DIQMTQSPSSLSASLGGEVTITCKASQDINKYIAWYQHKPGKGPRLLIHYTSTLQPGIPSRFSGSGSGRDYSFSVSNLEPEDIATYYCLQYDNLLTFGAGTKLELKR
notes: also called chimeric antibody Ch02; Ch02 antibody
B2: Hu02 L1H1 (antibody, human IgG1, kappa, V domains shown)
VH: EVQLVESGGGLVQPGGSLRLSCAASGFTFTEYHMSWVRQAPGKGLEWVGFIRNRANGYTTEYAASVKGRFTISRDDSKNSLYLQMNSLKTEDTAVYYCARLTMVVAEFDYWGQGTLVTVSS
VL: DIQMTQSPSSLSASVGDRVTITCQASQDINKYLNWYQHKPGKGPKLLIYYTSTLQTGVPSRFSGSGSGTDFTFTVSNLQPEDIATYYCLQYDNLLTFGQGTKLEIKR
B3: Hu02 L2H6 (antibody, human IgG1, kappa, V domains shown)
VH: B2 VH with N56Q, D76N, S87T, K89R
VL: B2 VL with D1A, D17E, Q24R
B4: Hu02 L1H4 (antibody, human IgG1, kappa, V domains shown)
VH: B2 VH with D76N, S87T, K89R
VL: B2 VL
B5: Hu02 L1H5 (antibody, human IgG1, kappa, V domains shown)
VH: B2 VH with G57A, D76N, S87T, K89R
VL: B2 VL
B6: Hu02-L1H2 (antibody, human IgG1, kappa, V domains shown)
VH: B2 VH with G57A
VL: B2 VL
B7: Hu02 L2H3 (antibody, human IgG1, kappa, V domains shown)
VH: B2 VH with N56Q
VL: B2 VL with D1A, D17E, Q24R
B8: Hu02 L2H5 (antibody, human IgG1, kappa, V domains shown)
VH: B2 VH with G57A, D76N, S87T, K89R
VL: B2 VL with D1A, D17E, Q24R
B9: Hu02 L1H6 (antibody, human IgG1, kappa, V domains shown)
VH: B2 VH with N56Q, D76N, S87T, K89R
VL: B2 VL
B10: Hu02 L2H1 (antibody, human IgG1, kappa, V domains shown)
VH: B2 VH
VL: B2 VL with D1A, D17E, Q24R
B11: Hu02 L2H2 (antibody, human IgG1, kappa, V domains shown)
VH: B2 VH with G57A
VL: B2 VL with D1A, D17E, Q24R
B12: Hu02 L1H3 (antibody, human IgG1, kappa, V domains shown)
VH: B2 VH with N56Q
VL: B2 VL
B13: Mu01 (antibody, V domains shown)
VH: QVQLQQSGAELVRPGSSVKISCKASGYTFSSYWMYWVKQRPGQGLEWIGQIYPGDGDSNYNENFKGKATLTADKSSSTAYMQLSSLTSEDSAVYFCTREGYGNRFAYWGQGTLVTVSA
VL: QIVLTQSPALMSASPGEKVTMTCSASSSVSYMYWYQQKPRSSPKPWINLTSNLASGVPARFSGRGSGTSYSLTISSMEAEDAATYYCQQWSYNPPTFGGGTKLEIK
notes: Murine hybridoma antibody purified from ascites; also called monoclonal antibody Mu01; antibody Mu01
B14: Hu01 L5H2 (antibody, human IgG1, kappa, V domains shown)
VH: QVQLVQSGAEVKRPGSSVKVSCKASGYTFSSYWMYWVRQAPGQGLEWIGQIYPGDGDSNYNENFQGRVTITADKSTSTAYMELSSLTSEDSAVYFCTREGYGNRFAYWGQGTLVTVSS
VL: EIVLTQSPALLSLSPGERATLSCSASSSVSYMYWYQQKPGQAPRLLIQLTSNLASGVPARFSGRGSGTDFTLTISSLEPEDFAVYYCQQWSYNPPTFGGGTKVEIKR
B15: Hu01 L3H2 (antibody, human IgG1, kappa, V domains shown)
VH: B14 VH
VL: B14 VL with L11M, G40R, Q41S, L45P, L46W, T71S, P79A, V84T
B16: Hu01-L3H1 (antibody, human IgG1, kappa, V domains shown)
VH: B14 VH with T87R, S91T, F95Y
VL: B14 VL with L11M, G40R, Q41S, L45P, L46W, T71S, P79A, V84T
notes: also called Hu01 antibody L3H1
B17: Hu01 L5H1 (antibody, human IgG1, kappa, V domains shown)
VH: B14 VH with T87R, S91T, F95Y
VL: B14 VL

biological target: T1, CD142 (Tissue Factor) on BxPC3 human pancreatic cancer cells (human, UniProt P13726 33-295); assay: flow cytometry on BxPC3 cells
T1 construct: whole, on cells; also called TF
Experimental: Digested cells were centrifuged at 1000 rpm for 5 min and blocked with 10% goat serum (purchased from SenBeiJia Biological Technology Co., Ltd., Product No. SRJ-SE-GO012) for 30 min. Then Hu02 antibodies L1H1, L1H2, L1H3, L1H4, L1H5, L1H6, L2H1, L2H2, L2H3, L2H5, and L2H6 prepared in Example 5 were serially diluted 3 times with an initial concentration of 500 nM. After that, the Hu02 antibody was added to the cells and incubated for 1 h. After washing twice with PBS, FITC-labeled goat anti-human antibody (purchased from Sigma, product No. FS9512-2ML) was added at 1:500 and incubated for 1 h. The results were analyzed by flow cytometry (BD biosciences, product No. BD Accuri C6 Plus) after washing twice with PBS.

EC50 [nM]	Binder
19.2	B1
11.6	B2
6.54	B3
6.39	B4
9.48	B5
13.2	B6
25.2	B7
8.12	B8
10.2	B9
18.1	B10
18.3	B11
19.7	B12

biological target: T1, CD142 (Tissue Factor) on BxPC3 human …; assay: flow cytometry on BxPC3 cells, antibody at 20 ug/mL, FITC goat anti-mouse detection
Experimental: Digested cells were centrifuged at 1000 rpm for 5 min and blocked with 10% goat serum (purchased from SenBeiJia Biological Technology Co., Ltd., Product No. SRJ-SE-GOO12) for 30 min. Then Mu01 and Mu02 antibodies respectively prepared in Example 4 and Example 5 were added at a final concentration of 20 μg/mL and incubated for 1 h. After washing with Phosphate buffer (PBS, PH 7.2-7.4) for 2 times, FITC-labeled goat anti-mouse antibody (purchased from Jackson ImmunoResearch, No. 115-545-003) was added at 1:500 and incubated for 1 hour. Analyzed the resulting product by flow cytometry after washing with PBS for 2 times.

binding result	Binder
binds	B13

biological target: T1, CD142 (Tissue Factor) on BxPC3 human …; assay: flow cytometry on BxPC3 cells, 3-fold dilutions from 500 nM, FITC goat anti-human detection
Experimental: Digested cells were centrifuged at 1000 rpm for 5 min and blocked with 10% goat serum (purchased from SenBeiJia Biological Technology Co., Ltd., Product No. SRJ-SE-GO012) for 30 min. Then Hu01 antibodies L5H2, L5H1, L3H1, L3H2 prepared in Example 4 were diluted with a 3-fold gradient at the initial concentration of 500 nM. After that, the Hu01 antibody was added to the cells and incubated for 1 h. After washing twice with PBS, FITC-labeled goat anti-human antibody (purchased from Sigma, product No. FS9512-2ML) was added at 1:500 and incubated for 1 h. The results were analyzed by flow cytometry after washing twice with PBS.

binding result	Binder
binds	B14
binds	B15
binds	B16
binds	B17

From patent publication US20260199507A1 (MULTITUDE THERAPEUTICS, published 2026)
